Laboratory results published in PMC5855864.

Tests used:
Test in all cases: SPR
[1] = molecular target: Protein A, native (Staphylococcus aureus) (UniProt P38507); settings: aptamer immobilized; 100 mM NaCl, 20 mM Tris-HCl pH 7.6, 10 mM MgCl2, 5 mM KCl, 1 mM CaCl2, 0.005% surfactant P20, 21 °C (SPR Biacore X100)
Protein A, recombinant = Protein A, recombinant (UniProt P38507); settings: aptamer immobilized; 100 mM NaCl, 20 mM Tris-HCl pH 7.6, 10 mM MgCl2, 5 mM KCl, 1 mM CaCl2, 0.005% surfactant P20, 21 °C (SPR Biacore X100)
[2] = molecular target: Protein A, native, biotinylated (Staphylococcus aureus) (UniProt P38507); settings: protein immobilized, aptamer as analyte; 100 mM NaCl, 20 mM Tris-HCl pH 7.6, 10 mM MgCl2, 5 mM KCl, 1 mM CaCl2, 0.005% surfactant P20, 21 °C (SPR Biacore X100)

ATACCAGCTTATTCAATTAGCAACATGAGGGGGATAGAGGGGGTGGGTTCTCTCGGCTACAATCGTAATCAGTTAG [PA#2/8 (3'-biotin)]
Kd [1]: 20 nM | Kd (Protein A, recombinant): 92 nM

ATACCAGCTTATTCAATTAGCAACATGAGGGGGATAGAGGGGGTGGGTTCTCTCGGCTACAATCGTAATCAGTTAG [PA#2/8 (unmodified)]
Kd [2]: 3730 nM

ATACCAGCTTATTCAATTAGCAACATGAGGGGGATGGAGGGGGTGGGTTCTCTCGGCTACAATCGTAATCAGTTAG [PA-C4]
Kd (Protein A, recombinant): 222 nM

ATACCAGCTTATTCAATTAGCAACATGAGGGGGGATAGAGGGGGTGGGTTCTCTCGGCTACAATCGTAATCAGTTAG [PA-C7]
Kd (Protein A, recombinant): 1610 nM

ATACCAGCTTATTCAATTAGGCCAGATGAGGGGTGCCCATGGCGGGGTGGCTGCTCCAACAATCGTAATCAGTTAG [PA-C8 (3'-biotin)]
Kd [1]: 99 nM | Kd (Protein A, recombinant): 443 nM

ATACCAGCTTATTCAATTGCGCACCACGGGAGTTGGCCACATTTGGAGTTGTTTTTGCACAATCGTAATCAGTTAG [PA-C10 (3'-biotin)]
Kd [1]: 588 nM | Kd (Protein A, recombinant): 2730 nM

ATACCAGCTTATTCAATTGGGCACCACGGGAGTCGGCCACATTTGGAGTTGTTTTTGCACAATCGTAATCAGTTAG [PA#14/89 (3'-biotin)]
Kd [1]: 467 nM | Kd (Protein A, recombinant): 2660 nM
